Data published in publication PMC3406685.

What was measured:
Test in all cases: real-time label-free cell adhesion
[1] = molecular target: Collagen Toolkit III peptide III-7
[2] = molecular target: Collagen Toolkit II peptide II-27
[3] = molecular target: triple-helical peptide II-27-A (GVOGEA within (GPP)5 hosts)

increase of adhesion on substitution of Mg2+ with Mn2+ [1]: 26%
increase of adhesion on substitution of Mg2+ with Mn2+ [2]: 65%
adhesion relative to that on II-27 [3]: 40%
increase of adhesion on substitution of Mg2+ with Mn2+ [3]: 13%
Substance: integrin α1β1 on rat pheochromocytoma PC12 cells (from UniProt P18614 29-1180; P49134 21-799) (receptor)
